Experimental findings from patent US20030171537A1 (Bayer, published 2003) are described below.

The target in the assay is human wild-type p53 (full-length, in vitro translated from plasmid pGEMhump53wt) (human, UniProt P04637 1-393). In words: cell-based or functional assay.

Non-standard residues stand in square brackets, D forms with d.

Chain of human wild-type p53 (full-length, in vitro translated from plasmid pGEMhump53wt) (P04637 whole entry): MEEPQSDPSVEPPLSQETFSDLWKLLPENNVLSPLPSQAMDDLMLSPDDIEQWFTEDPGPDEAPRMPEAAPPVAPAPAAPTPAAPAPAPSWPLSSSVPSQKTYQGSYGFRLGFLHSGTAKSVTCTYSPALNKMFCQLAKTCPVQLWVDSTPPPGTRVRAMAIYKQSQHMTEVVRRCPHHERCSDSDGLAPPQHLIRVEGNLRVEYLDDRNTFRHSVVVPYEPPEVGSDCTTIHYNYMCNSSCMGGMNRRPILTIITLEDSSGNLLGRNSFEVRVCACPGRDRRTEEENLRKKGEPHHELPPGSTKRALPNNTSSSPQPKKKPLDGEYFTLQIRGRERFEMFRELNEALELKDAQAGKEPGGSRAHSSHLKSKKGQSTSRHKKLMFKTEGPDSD

B1: cyclic peptide c[SRHKKa] (peptide)
peptide: cyclo(SRHKK[dA])
SMILES: C[C@H]1NC(=O)[C@H](CCCCN)NC(=O)[C@H](CCCCN)NC(=O)[C@H](Cc2c[nH]cn2)NC(=O)[C@H](CCCNC(=N)N)NC(=O)[C@H](CO)NC1=O
For B1, the “activation of p53 DNA binding (gel shift), relative to 0.05 mM peptide p53p363-373” value was around 2 times.
